According to patent EP4455161A1 (ONO Pharmaceutical Co., Ltd., dated 2024):

Legend:
[1] = target: T1, recombinant human full length CRMP1 (human, UniProt Q14194 1-572); experiment: direct ELISA, recombinant human CRMP1-5 coated at 5 µg/mL
T1 construct: mature

[2] = target: T2, Peptide 4152961: VCEVSV(p)T509… (phosphothreonine at T509 (CRMP2 numbering)); experiment: direct ELISA on coated peptide (Fig. 5)
T2 construct: also called CRMP2 peptide with phosphorylation at T509

[3] = target: T3, Peptide 4152963: …(p)S522PAKQQA (phosphoserine at S522 (CRMP2 numbering)); experiment: direct ELISA on coated peptide (Fig. 5)
T3 construct: also called CRMP2 peptide with phosphorylation at S522

[4] = target: T4, Peptide 4152960: …; experiment: direct ELISA on coated peptide (Fig. 5)
T4 construct: also called non-phosphorylated CRMP2 peptide

[5] = target: T5, CRMP2 peptide 129 (VTPASSAKTSPAKQQ) (human); experiment: overlapping peptide array
T5 construct: 15-mer spotted on a cellulose membrane array
T5 peptide: VTPASSAKTSPAKQQ

[6] = target: T6, CRMP2 peptide 128 (TPKTVTPASSAKTSP) (human); experiment: overlapping peptide array
T6 construct: 15-mer spotted on a cellulose membrane array
T6 peptide: TPKTVTPASSAKTSP

[7] = target: T7, CRMP2 peptide H-EVSVTPKTVTPASSAKTSPAKQQC-NH2 (C-terminal amide); experiment: ELISA
T7 peptide: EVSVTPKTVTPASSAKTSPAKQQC

[8] = target: T8, pCRMP2 peptide H-TVTPASSAKT(pS)PAKQQAPPVRC-NH2 (phosphoserine at S522 (CRMP2 numbering); C-terminal amide); experiment: ELISA
T8 construct: also called pCRMP2 peptide containing a single S522 phospho-site
T8 peptide: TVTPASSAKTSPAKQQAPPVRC

[9] = target: T9, CRMP2 peptide TVTPASSAKTSPAKQQAPPVRC-NH2 (C-terminal amide); experiment: ELISA
T9 peptide: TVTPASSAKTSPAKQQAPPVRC

[10] = target: T10, pCRMP2 peptide H-EVSV(pT)PKTV(pT)PASSAKT(pS)PAKQQC-NH2 (phosphothreonine at T509 and T514, phosphoserine at S522 (CRMP2 numbering); C-terminal amide); experiment: ELISA
T10 construct: also called pCRMP2 peptide containing three phospho-sites T509, T514 and S522
T10 peptide: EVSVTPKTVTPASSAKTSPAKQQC

T1 sequence (Q14194 whole entry): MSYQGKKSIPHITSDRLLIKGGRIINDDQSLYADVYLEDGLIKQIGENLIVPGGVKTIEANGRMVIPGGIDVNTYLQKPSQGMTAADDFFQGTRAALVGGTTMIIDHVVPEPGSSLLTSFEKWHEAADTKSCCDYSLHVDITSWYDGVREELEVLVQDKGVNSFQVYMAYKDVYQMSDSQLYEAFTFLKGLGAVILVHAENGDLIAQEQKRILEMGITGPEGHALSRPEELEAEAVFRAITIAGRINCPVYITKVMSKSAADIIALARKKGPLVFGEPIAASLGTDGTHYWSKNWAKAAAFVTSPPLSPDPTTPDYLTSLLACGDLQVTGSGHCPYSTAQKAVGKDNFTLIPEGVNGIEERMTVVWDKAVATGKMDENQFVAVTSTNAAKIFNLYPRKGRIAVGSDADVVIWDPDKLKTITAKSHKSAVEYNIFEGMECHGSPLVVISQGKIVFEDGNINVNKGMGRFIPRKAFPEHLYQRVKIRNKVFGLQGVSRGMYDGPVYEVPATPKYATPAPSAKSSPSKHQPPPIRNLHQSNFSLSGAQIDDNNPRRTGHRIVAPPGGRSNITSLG

EC50 [1]: 69 nM
binding result [2]: binds
binding result [3]: binds
binding result [4]: binds
binding result [5]: binds
binding result [6]: binds
binding result [7]: binds
binding result [8]: binds
binding result [9]: binds
binding result [10]: binds
B1: NI-504.3E7 (antibody, human IgG1, V domains shown)
VH: EVQLVETGGGFVQPGGSLQLSCAVSGFPYSGTSFHWVRQVSGKGLEWIGRIRSKSDNYETSYTESLKGRFIVSRDDSKNMVRLHLYSLRTEDTALYYCTTGIIVVDTSYLDHWGRGTLVTVSS
VL: SYELTQPPSASVSPGQTARITCSGAALPKKYAYWYQLKSGQAPVLVIYEDTKRPSGIPERFSGSSSGTLATLTINGALVEDEADYYCYSTDSSGDVWVFGGGTKLTVL
notes: VH_3E7 + VL_3E7
